One molecule from patent US12559559B2, “Targeting Galectin-9 as a therapeutic strategy for T-cell exhaustion in T-cell acute lymphoblastic leukemia” (DANA-FARBER CANCER INSTITUTE, INC., priority 2019, dated 2026) can be followed below.

This experiment has as its target T1, Galectin-9 (LGALS9) (Homo sapiens, UniProt O00182).
T1 construct: cultured from normal donors with and without T-ALL supernatant (containing LGALS9) for three days; endogenous in cells; host or cells: DND-41 T-ALL cell line (culture supernatant)
Briefly: T-cell exhaustion functional assay / HAVCR2-LGALS9 pathway blocking in activated CD8+ T-cells (qRT-PCR). Particulars: recombinant Galectin-9 2.5 μg/mL added to the culture, 72 hours. Format: cell-based. The procedure: HAVCR2 mRNA expression in activated CD8+ T-cells cultured with T-ALL supernatant (from DND-41 cells; orange) or control media (blue), in the presence/absence of anti-human Galectin-9 (10 μg/mL) or recombinant Galectin-9 (2.5 μg/mL). n.s. P>0.05, **P≤0.01 and ***P≤0.001, based on 3 technical replicates, using two-sided t-test.
T-cells were isolated using Easy Sep Human T-cell Enrichment kit (StemCell Technologies), activated and expanded with Dynabeads Human T-activator CD3/CD28 (ThermoFisher Scientific) in X-VIVO 15 (Lonza) with 5% of human AB serum, and 50 U/mL IL-2 (Miltenyi Biotech). For T-cell exhaustion functional assays, activated CD8′ T-cells were cultured in X-VIVO 15 media or in supernatant media of DND-41 cell line, with 50 U/mL IL-2. For HAVCR2-LSGAL9 pathway blocking experiments, activated CD8^+ T-cells were cultured in X-VIVO 15 media or in supernatant media of DND-41 T-ALL supplemented with anti-human Galectin-9 10 μg/mL (Thermo Fisher Scientific) or recombinant Galectin-9 2.5 μg/mL (R&D systems) for 72 hours.
RNA was isolated using RNeasy Mini Kit (Qiagen), followed by reverse transcription with SuperScript III Reverse Transcriptase (ThermoFisher Scientific). Gene expression was quantified by quantitative real-time PCR using Power SYBR Green PCR Master Mix (Applied Biosystems, Vial instrument). […]
On the technique in general: In qPCR the cycle at which signal appears reflects the starting amount.

T1 sequence (O00182 whole entry): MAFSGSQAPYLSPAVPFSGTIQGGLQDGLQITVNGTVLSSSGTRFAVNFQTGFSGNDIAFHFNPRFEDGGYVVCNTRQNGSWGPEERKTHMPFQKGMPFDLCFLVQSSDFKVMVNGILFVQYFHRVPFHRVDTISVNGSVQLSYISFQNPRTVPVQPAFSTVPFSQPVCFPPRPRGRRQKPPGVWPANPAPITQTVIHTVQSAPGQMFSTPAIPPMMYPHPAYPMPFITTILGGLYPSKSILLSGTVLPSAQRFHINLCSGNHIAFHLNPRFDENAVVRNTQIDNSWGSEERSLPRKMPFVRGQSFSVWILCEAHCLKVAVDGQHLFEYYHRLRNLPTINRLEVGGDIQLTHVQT

B1: recombinant soluble LGALS9: recombinant Galectin-9 (R&D systems), used at 2.5 μg/mL (protein)
chain: MAFSGSQAPYLSPAVPFSGTIQGGLQDGLQITVNGTVLSSSGTRFAVNFQTGFSGNDIAFHFNPRFEDGGYVVCNTRQNGSWGPEERKTHMPFQKGMPFDLCFLVQSSDFKVMVNGILFVQYFHRVPFHRVDTISVNGSVQLSYISFQNPRTVPVQPAFSTVPFSQPVCFPPRPRGRRQKTQTVIHTVQSAPGQMFSTPAIPPMMYPHPAYPMPFITTILGGLYPSKSILLSGTVLPSAQRFHINLCSGNHIAFHLNPRFDENAVVRNTQIDNSWGSEERSLPRKMPFVRGQSFSVWILCEAHCLKVAVDGQHLFEYYHRLRNLPTINRLEVGGDIQLTHVQT
Take B1: the “Exhaustion marker expression in activated CD8+ T-cells” value is on record as “upregulation of exhaustion markers”.
